Measured values published in patent US20170002081A1.

How the values were obtained:
[1] = biological target: human CSF-1R, full length, on cells (human) (UniProt P07333); test: displacement of ^125I-H27K15 on EL4-CSF-1R cells
[2] = biological target: human CSF-1R, full length, on cells (human) (UniProt P07333); test: displacement of 1.5 nM ^125I-H27K15 (competitor) on EL4-CSF-1R cells
[3] = biological target: human CSF-1R, full length, on cells (human) (UniProt P07333); test: displacement of 1.5 nM ^125I-H27K15 (competitor) on EL4-CSF-1R cells, Cheng-Prusoff
[4] = biological target: CSF-1R20-512-Fc (R&D Systems cat. 329-MR) (human) (UniProt P07333); test: competition ELISA with biotinylated CSF-1(1-444) on coated CSF-1R-Fc, saturation doses, pre-, co- or post-incubation
[5] = biological target: CSF-1R20-512-Fc (R&D Systems cat. 329-MR) (human) (UniProt P07333); test: competition ELISA, co-incubation: coated Fc-D1-D5 human CSF-1R, mAb and biotinylated CSF-1(1-444) together 1 hour; streptavidin-HRP
[6] = biological target: CSF-1R20-512-Fc (R&D Systems cat. 329-MR) (human) (UniProt P07333); test: competition ELISA, pre-incubation: coated Fc-D1-D5 human CSF-1R, mAb 1 hour, then biotinylated CSF-1(1-444) 1 hour; streptavidin-HRP
[7] = biological target: CSF-1R20-512-Fc (R&D Systems cat. 329-MR) (human) (UniProt P07333); test: competition ELISA, post-incubation: coated Fc-D1-D5 human CSF-1R, biotinylated CSF-1(1-444) 1 hour, then mAb 1 hour; streptavidin-HRP

Which Ki [1] does the source give for “mAb 3291 (murine IgG1, clone 61701, R&D Systems MAB3291) (antibody)” here?
The Ki was over 1 nM.

And the IC50 [2]?
Its IC50 is 2.18 nM.

What about the Ki [3] of the same substance?
Its Ki is 1.28 nM.

What about the decrease of the CSF-1 binding to CSF-1R (%) [4] of the same substance?
Its decrease of the CSF-1 binding to CSF-1R (%) is 30 to 40%.

What about the IC50 (read off the curve) [5] of the same substance?
The IC50 (read off the curve) was 1 mg/L.

What about the IC50 (read off the curve) [6] of the same substance?
The IC50 (read off the curve) was 0.5 mg/L.

And the IC50 (read off the curve) [7]?
Its IC50 (read off the curve) is 0.6 mg/L.

What does the source list for “mAb JF14 (murine IgG1, Santa Cruz sc-80174) (antibody)”?
Ki [1]: > 1 nM; IC50 [2]: 3.02 nM; Ki [3]: 1.78 nM
